Results on 49 sequences are retold here after the Immune Epitope Database (IEDB).

Where only a bound is given, the exact number is not on record here.

In experiment [1] the target is HLA-A*30:01. The experiment in a line: IEDB peptide-MHC binding, purified MHC/competitive/radioactivity; filed as Kd, often an IC50 or EC50 that approximates it; ≥ and ≤ were set here for values at or beyond the usual limits of such assays.
Experiment [2] addresses HLA-A*30:02. The description is as above.
Experiment [3] has as its target HLA-B*58:01. As to the kind of experiment: IEDB peptide-MHC binding, purified MHC/direct/fluorescence; filed as Kd, often an IC50 or EC50 that approximates it; ≥ and ≤ were set here for values at or beyond the usual limits of such assays.
The target in experiment [4] is HLA-A*02:01. Described as above.
Experiment [5] has as its target HLA-B*40:01. The description is as above. To be noted: source organism: Mycobacterium tuberculosis variant bovis.
For experiment [6], the target named is HLA-A*11:01. The experiment is described as above.
Experiment [7] has as its target HLA-A*03:01. The description is as above.
In experiment [8] the target is HLA-A*01:01. Described as above.
Experiment [9] has as its target HLA-A*69:01. The experiment is described as above.
Experiment [10] addresses HLA-A*26:01. The experiment in a line: IEDB peptide-MHC binding, purified MHC/competitive/radioactivity; filed as Kd, often an IC50 or EC50 that approximates it; ≥ and ≤ were set here for values at or beyond the usual limits of such assays.
In experiment [11] the target is HLA-B*15:01. The experiment in a line: IEDB peptide-MHC binding, purified MHC/direct/fluorescence; filed as Kd, often an IC50 or EC50 that approximates it; ≥ and ≤ were set here for values at or beyond the usual limits of such assays. Conditions: source organism: Haemophilus influenzae.
The target of experiment [12] is HLA-A*02:03. As to the kind of experiment: IEDB peptide-MHC binding, purified MHC/competitive/radioactivity; filed as Kd, often an IC50 or EC50 that approximates it; ≥ and ≤ were set here for values at or beyond the usual limits of such assays.
The target of experiment [13] is HLA-A*68:01. Described as above. To be noted: source organism: Dengue virus 3 Martinique/1243/1999.
Experiment [14] has as its target HLA-A*02:02. The experiment is described as above.
Experiment [15] concerns the target HLA-A*02:06. Described as above.
Where [16] appears, read: source organism: Dengue virus 2 Jamaica/1409/1983.
Setting [17] is: source organism: Dengue virus 2 16681-PDK53.
Where [18] appears, read: source organism: Dengue virus 3 Martinique/1243/1999.
The mark [19] stands for this setting: source organism: Vaccinia virus WR.
The mark [20] stands for this setting: source organism: Haemophilus influenzae.
Setting [21] is: source organism: Dengue virus 1 Brazil/97-11/1997.
[22] abbreviates: source organism: Lassa virus Josiah.
Where [23] appears, read: source organism: Human immunodeficiency virus type 1 (isolate YU2).
Where [24] appears, read: source organism: Entamoeba histolytica HM-1:IMSS.
[25] abbreviates: source organism: Escherichia coli.
[26] abbreviates: source organism: SARS coronavirus Tor2.

Regarding CFKPALPTL, the Kd – broadly, the equilibrium constant for the complex coming apart – in experiment [1] (source organism: Vaccinia virus Copenhagen) amounted to 72 nM.
For GRLITVNPIV, the equilibrium dissociation constant (Kd) in experiment [1] (setting [16]) was no less than 20400 nM.
As for KMEALQRKY, the Kd in [2] (setting [17]) is 61.4 nM.
Consider KNENDQYIY, for which, in experiment [2] (setting [16]), the dissociation constant (Kd) is 0.15 nM.
As to SGVLWDVPSP, in [1] (setting [18]), the Kd was 3670 nM.
On to HTRDPQNAA, for which, in experiment [1] (setting [19]), the Kd was 0.907 nM.
NAICSAVPSH: the Kd in experiment [1] (setting [16]) was found to be 6440 nM.
Consider DARVYADPMA, for which the Kd in [1] (source organism: Dengue virus 4 Philippines/H241/1956) came out at 9270 nM.
The sequence SSSTEVETY gave a Kd in experiment [3] (source organism: Influenza A virus (A/New York/124/2001(H3N2))) of 495 nM.
ALLGERPII showed a dissociation constant Kd in experiment [4] (setting [20]) of 7760 nM.
For FEGIAVLGL, the Kd in [5] was 67.6 nM.
In the case of KVYINHPFM, the Kd in [1] (setting [19]) amounted to 0.517 nM.
For the sequence IVREAIKRK, the Kd in experiment [1] (setting [21]) is 97.7 nM.
Regarding RAVLDDGIY, in experiment [2] (setting [21]), the Kd was found to be 44.8 nM.
Turning to VLTLATGPIL, the Kd in experiment [1] (source organism: Dengue virus 4 Dominica/814669/1981) is 1330 nM.
With KLKFRFIIR, the Kd in [1] (setting [19]) stood at 119 nM.
On to VSNRCPICK, for which the Kd in experiment [6] (setting [22]) was 47.2 nM; in experiment [7] (setting [22]), 882 nM.
Regarding RIKQIINMW, the Kd in experiment [3] (setting [23]) was found to be 884 nM; in experiment [8] (setting [23]), 5.56 µM; in experiment [7] (setting [23]) it was 3660 nM.
As for ALGYTTEEI, the Kd in experiment [9] (setting [20]) was 7.48 µM; in [4] (setting [20]), 338 nM.
Turning to AEALKGMPIR, the Kd in experiment [1] (setting [21]) came to 1260 nM.
With SVIEKMEAL, in experiment [10] (setting [17]), the Kd is 51 nM.
For AMVPLVMVI, the Kd in experiment [9] (setting [20]) was found to be 3.43 µM; in experiment [11] it was 834 nM; in [4] (setting [20]), 435 nM.
PLNEGIMAV: the values for the Kd in [12] (source organism: Dengue virus 1 Singapore/S275/1990) and in experiment [9] (source organism: dengue virus type 1) were 118 nM and no less than 5 µM, respectively.
As to LWRTLGRNK, the Kd in experiment [1] (setting [18]) was determined as 478 nM.
On to GVVTKNGGY, for which the results for the equilibrium dissociation constant (Kd) in experiment [10] (setting [18]) and in experiment [2] (setting [18]) were 1210 nM and no less than 61300 nM, respectively.
For the sequence GMLECGFPT, the Kd in [9] (setting [24]) is no less than 5 µM; in experiment [4] (setting [24]), 4.8 nM.
On to KSDLQPPNY, for which the Kd came out at 220 nM in [3] (source organism: Homo sapiens), 1.33 µM in experiment [9] (source organism: Homo sapiens), 0.055 µM in [8] (source organism: Homo sapiens) and 18700 nM in [7] (source organism: Homo sapiens).
On to KLKPRWLDA, for which, in experiment [1] (setting [16]), the Kd came out at 21 nM.
Sequence TMKPHTFNK came in with a Kd in experiment [7] (source organism: Bacillus thuringiensis) of 120 nM.
Regarding KAKGSRAIWY, the Kd in [2] (setting [16]) was determined as 6.68 nM.
For RFRKKKKVY, in experiment [8] (source organism: Listeria monocytogenes), the Kd was no less than 20 µM.
Turning to KLKIALAKG, the Kd in [1] (setting [19]) was determined as 479 nM.
Regarding TFKNPHAKK, in [1] (setting [16]), the Kd is 1460 nM.
On to VLAGIFAGV, for which the Kd in experiment [4] (source organism: Mycobacterium tuberculosis) is no more than 1 nM.
With KVKSYNYML, in [1] (setting [19]), the Kd came out at 0.175 nM.
On to RILAYGPCL, for which the Kd in experiment [9] (setting [25]) was no less than 20 µM; in experiment [4] (setting [25]), 418 nM.
On to DVFYLPPEK, for which the Kd in experiment [13] was 5.57 nM; in experiment [1] (setting [18]), 1370 nM.
As to TTKATTQIA, in experiment [1] (setting [19]), the equilibrium dissociation constant (Kd) was found to be 6.52 nM.
RYRQRLISL: in experiment [1] (setting [19]), the dissociation constant Kd is 5.17 nM.
As to LMIFISSFL, the values for the Kd in experiment [12] (setting [19]), in experiment [14] (setting [19]) and in experiment [15] (setting [19]) were 0.13 nM, 0.651 nM and 17.8 nM, respectively.
For the sequence SLYGRYNCK, the Kd in [7] (source organism: Mammarenavirus tacaribeense) amounted to 89 nM.
For the sequence TTFITVLTSV, the Kd in experiment [12] (setting [19]) amounted to 16.1 nM; in [14] (setting [19]), 1120 nM; in [15] (setting [19]), 166 nM.
Take LQRGRLPLV: the Kd in experiment [1] (setting [19]) turned out to be 93.3 nM.
Regarding YIENTNQGNI, the Kd is 582 nM in [12] (setting [19]), 1220 nM in experiment [14] (setting [19]) and 6200 nM in experiment [15] (setting [19]).
Take TTTLEETKF: the Kd in experiment [3] (source organism: SARS-CoV1) was 11700 nM; in [6] (source organism: SARS-CoV1), no less than 109000 nM.
For DTSNNIAEYI, the Kd in experiment [12] (setting [19]) is 9220 nM; in experiment [14] (setting [19]), 3330 nM; in [15] (setting [19]), no less than 45700 nM.
As for NIISYIILFI, the Kd is 133 nM in experiment [12] (setting [19]), 123 nM in [14] (setting [19]) and 72 nM in [15] (setting [19]).
On to IGNEEFLDY, for which the equilibrium dissociation constant (Kd) in [2] (setting [18]) was determined as 961 nM.
Take LLFNKVTLA: the Kd in experiment [12] (setting [26]) is 1.06 nM; in [14] (setting [26]), 0.953 nM; in experiment [15] (setting [26]), 9.01 nM.
